Test results: the DeepSol protein solubility set

Assay: soluble on expression in E. coli; label from the status in PepcDB or PDB records

Sequence | soluble on expression in E. coli
MSLMSSDQQGKCPVDEETKKLWLREHGNEAHPGATAPGNQLECSANPQDNDKTPEYHTTVDLSQSREVSTIPRTNSDRNWIYPSEKQFYEAMMKKNWDPNSDDMKVVVPLHNSINERVWNYIKSWEDKQGGEACGGIKLTNFKGDSKKLTPRAWFRSRILHLAKPFDRHDWQIDRCGKTVDYVIDFYSTDLNDANSQQQPLIYLDVRPKLNSFEGFRLRFWKSLGFEGHHHHHH | soluble
MLKIADKTFQSRLFTGTGKFSNRHVMAEALAASGSELVTMALKRIDLAQRDDDILAPLLSMQMNLLPNTSGAKNAADAVYAAELAREALATNWLKLEIHPDPKYLMPDPIETLLAAEQLVKQGFIVLPYCHADPVLCKRLEEVGCAAVMPLGSPIGSNQGLASKTFLEIIIDQAKVPVIVDAGIGSPSDAAQAMELGADAVLVNTAIAAAHDPIAMAKAFKLAVEAGRMAYESGLPSRVKMATASSPLTGFLDFVS | not soluble
MDVAGEKQQRKGEAIARIEAEKNAYTVAQLADEYFERMIAGRWKHPNIVRSRIEKDIKPAIGSLKVEDVKPRHIDDVLKAVMKRGAPSIANDTLRWLKRMFNYAIKRHIIEYNPAAAFLEHHHHHH | not soluble
MSSSLQSNRQSLNRKVAVMGYPHVGKSALVLRFTQNIFPERYESTIEDQHSKHIAAFHRDYHLRVTDTAGQQEYTVFPRSCSLDINGFILVYAIDDRKSFEMCSNIYEKIVRTYGDTSIPIVIVGNKTDLSTQRVVRAEEGEELARQWDAKFVEITARESNRVHEVFELLLREIEISRGNLSPTERPNGNSPKRNPFKDDGKPCSIS | not soluble
MTGALNQAQKTPWRYGFLNLMRRVDAQLCDTPAGSIWQPRMEKFRLGQTPTMTFAPREIAQVSWQDGRLHLSLYSLGLWGPNGPLPLHYTELALNRSESRHDPTLVHFSNIFHHRWLTQFWQAWRSAQSAGGGLDKPEHDRFAFYIASLSGQDLRESAESPLSDHVRLAASAHLVRESRNPDGLAATLAHYFSVPFAVKEFALHWITVANDEITRLGTPAQSSVLGNGALIGQAVPDMQYKFRLIIGPLTLEDYLRFLPGGNNLPVLTELVRTFIGFEYCWEIELQLKPHAAPPAVIGGAQRLGWTAWAGKAMHDRPVTGMIFEPEHGLTH | not soluble
MGHHHHHHSHMSLTTSHFIPFPREMVWDWHTRKGAVARLTPPFIPLNPITQAERLADGTTIFSLPAGLKWVARHDLSGFLNGSRFTDVCLTAPVKALANWRHVHNFVDQDGGTLITDSVSTRLPASTLTGMFAYRQTQLIEDLKF | not soluble
MRQIETQQLEAETSFTERIAEDRVKCAAQRESLERQLQDLTATDNKLSEQKRDWEERQEKAYDELMSYLENEDVDSAGTQFGDHFNSLIKSMNNLSHDSMNGQFNSLKNNLDELNIEKKQLEVAIADQSSTISEMIPSLRPTCGATYKERNTLRIIFHYQVAKLRSEYQKCRLQEEALKARLST | not soluble
MLMSLAQCPGFLFAHREECTVEIKKIINPRYTESGAVDCDVFFDDRDQAVPYTATADDVAPTGQQIWQELQSGKWGEIAPFTVTPEMLEAAREARRQEIEAWRTEQEAKPFTFEWNGRTWNADASSVARLSPVVMLAKSVAAQTHMVWSDADNQQVKLSMPELEELAAAMVQAQVDRNDEIYRRQREMKEELSSLDDLASIRAFDVK | not soluble
MAAEDELQLPRLPELFETGRQLLDEVEVATEPAGSRIVQEKVFKGLDLLEKAAEMLSQLDLFSRNEDLEEIASTDLKYLLVPAFQGALTMKQVNPSKRLDHLQRAREHFINYLTQCHCYHVAEFELPKTMNNSAENHTANSSMAYPSLVAMASQRQAKIQRYKQKKELEHRLSAMKSAVESGQADDERVREYYLLHLQRWIDISLEEIESIDQEIKILRERDSSREASTSNSSRQERPPVKPFILTRNMAQAKVFGAGYPSLPTMTVSDWYEQHRKYGALPDQGIAKAAPEEFRKAAQQQEEQEEKEEEDDEQTLHRAREWDDWKDTHPRGYGNRQNMGAAAAAALEHHHHHH | not soluble
MSLATIDSMNKDTTRLSDGPDWTFDLLDVYLAEIDRVAKLYRLDTYPHQIEVITSEQMMDAYSSVGMPINYPHWSFGKKFIETERLYKHGQQGLAYEIVINSNPCIAYLMEENTITMQALVMAHACYGHNSFFKNNYLFRSWTDASSIVDYLIFARKYITECEERYGVDEVERLLDSCHALMNYGVDRYKRPQKISLQEEKARQKSREEYLQSQVNMLWRTLPKREEEKTVAEARRYPSEPQENLLYFMEKNAPLLESWQREILRIVRKVSQYFYPQKQTQVMNEGWATFWHYTILNHLYDEGKVTERFMLEFLHSHTNVVFQPPYNSPWYSGINPYALGFAMFQDIKRICQSPTEEDKYWFPDIAGSDWLETLHFAMRDFKDESFISQFLSPKVMRDFRFFTVLDDDRHNYLEISAIHNEEGYREIRNRLSSQYNLSNLEPNIQIWNVDLRGDRSLTLRYIPHNRAPLDRGRKEVLKHVHRLWGFDVMLEQQNEDGSVELLERCPPRMGNLEGHHHHHH | soluble
MASKKASGTLPPQQQVVHKVIMVGTGGVGKSALTLQFMYDEFVEEYEPTKADSYRKKVVLDGEECSIDILDTAGQEDYSAIRDNYYRSGEGFICVFSILDMESFEATNEFREQILRVKNSDSSVPIVLVGNKGDMRDQRVVSAELCRQRAEQWGCHYVETSAKRRENVDKVFYDLMREMKRRKGGSQAQTGIDASASSGRKKRSGIKKHCTIL | not soluble
MKFPGQRKSKHYFPVHARDPLVSQAQEAKKMSRTHIIGIDQTLVDIEAKVDDAFIEKYGLSKGHSLVIDNDKAEMLYNELKDNNMISNEFAGGTIGNTLHNYSVLADDKSTLLGVMSEDIHIGSYSYRYLCNTSSRMDLNYLQPVPGAIGRCFALISEDGERTFAISEGDMNQLRAESIPEKIFKNASALVLTAYLVRCKEGDPMPEATMKAIEYAKKYDVPVVLTMGTKFVVQDDPQYWRDFLNDHVTVVAMNEEEGEALTGATDPLEAANKTLEWVDLVLCTAGPVGLYMAGYTEDSAKRETSLPLLPGTIAEFNQFEFSRPAVKDSCENPIKVFSHISPYMGGPEKIKNTNGAGDGALSALLHDMAANHYHRNNVPNSSKHQHSFLTYSSFSQVCKYSNRVSFEVLAQHSPRLSRGLPEREDSLEEAYWER | not soluble
GSSCPGKSSWPHLVGVGGSVAKAIIERQNPNVKAVILEEGTPVTKDFRCNRVRIWVNKRGLVVSPPRIG | soluble
MSLARLKVKVWGEYACFSRPEFKVERVSYPVPTPSAARGLLEAIFWKPEFRYEVRRIGVLRLGTPFALLRNEVGNRMGAKPFFVEDARQQRTSLVLKDVAYLVEADMVLRPHATDPLPKYLEQFERRLKKGQYHHTPYLGTREFPAYFSPPDGEVPDGGLNLDLGPMLFDLAFVEDPGRPELTFKRPGRGEVQGYALPLFFHARIREGWLEVPAEKYQELYRLEEGHAKGAEGHHHHHH | soluble
MSLKAIAKLRDHCIVCGYGRIGSVVAKELMEEGVALVVIENDPAMIEALETEGILHLAGDATNDELLQAAGIERARALVAALSLDSANVYVVLSAHQINPSMTIVARASEPSHIGKLKLAGADRVFLPHHLGGLRMAQSILRPTVTSFIELAHTRSDLSIQMEELEIGDDSVLVGKTLIESGIRPQYNLIIIGVKRPDGTMHFNPESTYTLQARDTLIAVGFPENFKQFQEILEGHHHHHH | soluble
MGSSHHHHHHSSGRENLYFQGPSNSDAAHAFWSTQPVPQTEDEDEKIVFAGPMDEPKTVADIPEEPYPIASTFEWWTPNMEAADDIHAIYELLRDNYVEDDDSMFRFNYSEEFLQWALCPPNYIPDWHVAVRRKADKKLLAFIAGVPVTLRMGTPKYMKVKAQEKGEGEEAAKYDEPRHICEINFLCVHKQLREKRLAPILIKEATRRVNRTNVWQAVYTAGVLLPTPYASGQYFHRSLNPEKLVEIRFSGIPAQYQKFQNPMAMLKRNYQLPSAPKNSGLREMKPSDVPQVRRILMNYLDSFDVGPVFSDAEISHYLLPRDGVVFTYVVENDKKVTDFFSFYRIPSTVIGNSNYNLLNAAYVHYYAATSIPLHQLILDLLIVAHSRGFDVCNMVEILDNRSFVEQLKFGAGDGHLRYYFYNWAYPKIKPSQVALVML | soluble
MKIFFITSNPGKVREVANFLGTFGIEIVQLKHEYPEIQAEKLEDVVDFGISWLKGKVPQPFMIEDSGLFIESLKGFPGVYSSYVYRTIGLEGILKLMEGAEDRRAYFKSVIGFYIDGKAYKFSGVTWGRISNEKRGTHGFGYDPIFIPEGSEKTFAEMTIEEKNALSHRGKALKAFFEWLKVNLKY | soluble
